B1: DENV-3 (structured_RNA)
RNA: GGAGCUCAGCCUUCACUGCUUUGAUCUCGUGGGGGUGUGUCGCGGGAGACACCAUGGAAUAUAUGGCUGAUUUCAUGUGGGCACCACGGUCGGAUCCAC
B2: DENV-6 (structured_RNA)
RNA: GGAGCUCAGCCUUCACUGCCGUAGUCGUAUCUCCAUUACCCAGAAUGGUGAUGCGCCGUGAAGAGCGGUUUAGGGAAUUGGCACCACGGUCGGAUCCAC

Molecular target: NS1 (dengue virus serotype 2) (Dengue virus serotype 2, UniProt P29990 776-1127)
Assay: filter binding
Conditions: protein: commercial; chain copies: 2

Chain of NS1 (dengue virus serotype 2) (P29990 776-1127): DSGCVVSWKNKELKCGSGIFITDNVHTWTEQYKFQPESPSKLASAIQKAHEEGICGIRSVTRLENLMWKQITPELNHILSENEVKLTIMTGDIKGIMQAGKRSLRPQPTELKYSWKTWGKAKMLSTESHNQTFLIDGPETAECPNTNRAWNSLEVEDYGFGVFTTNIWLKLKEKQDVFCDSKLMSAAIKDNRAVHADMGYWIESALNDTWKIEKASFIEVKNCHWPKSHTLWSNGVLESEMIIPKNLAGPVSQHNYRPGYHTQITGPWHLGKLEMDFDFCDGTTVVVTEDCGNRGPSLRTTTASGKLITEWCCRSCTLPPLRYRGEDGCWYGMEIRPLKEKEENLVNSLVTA

Binder | Kd
B1 | 37.6 ± 10.3 nM
B2 | 41.4 ± 9.29 nM
